Data taken from US20150087596A1.

Columns and labels:
[1] = target: human Nav1.2 (sodium channel protein type 2 subunit alpha) (human) (UniProt Q99250); test: cell-based or functional assay
[2] = target: human Nav1.7 (sodium channel protein type 9 subunit alpha) (human) (UniProt Q15858); test: cell-based or functional assay

**Q.** recombinant Huwentoxin-IV (peptide) was tested. Which IC50, veratridine-induced depolarization inhibition assay [1] did it give?
**A.** 342 nM

**Q.** What about the IC50, veratridine-induced depolarization inhibition assay [2] of the same substance?
**A.** 159 nM

**Q.** What about the ratio of IC50 for Nav1.2 to IC50 for Nav1.7 [2] of the same substance?
**A.** 2.14
